Patent publication US20220390449A1, “NEW S[…] FOR THE LATENT FORM OF TOXOPLASMOSIS” (INSERM (INSTITUT NATIONAL DE LA SANTÉ ET DE LA RECHERCHE …, priority 2019, published 2022)
Entries after “also recorded” stand apart in the source; their conditions may differ.

Legend:
BCLA positive sera = assay: Epitope mapping of BCLA repeat and rBCLA (dot blot peptide assay); format: binding; settings: 59 peptides of 15 aa covering res 1089-1275; human sera 1/400
From the text: Epitope mapping of BCLA repeat and rBCLA. Dot blot peptide assays were custom synthetized by JPT Peptide technologies on cellulose membranes with N-Acetyl moieties on the N-terminus. Two sets of membranes were screened: 1) covering the rBCLA region (res 1089-1275) with a total of 59 peptides, each 15 aa long with an overlap of 12 and an offset of 3; 2) covering repeat 4 (res 446-493) with a total of 18 peptides, each 15 aa long with an overlap of 12 and an offset of 3. Dot blot assays were performed as described by the manufacturer. Briefly, the membranes were first activated 5 min in 100% ethanol then washed 3 times 3 min in DPBS-tween. Blocked O.N at 4° C. in DPBS-Tween 0.5% powdered milk then washed again 3*3 min in DPBS-tween. Tested sera were diluted to 1/400 in DPBS-tween 0.1% BSA and incubated for 3 h at RT with the membrane. Following a 3*3 min DPBS-tween wash, membranes were incubated with anti-IgG peroxidase coupled Ab (Sigma A0170) diluted to 1/100 000 for 2 h at RT. […] Dot intensity was integrated using ImageJ. […]. For data analysis of independent dot blots, integrated intensities from every peptide dot [I(p)] were normalised into enrichment factors Fe(p) using the baseline integrated intensity of peptide 59[I(p=59)] which never reacts with any sera. The following can be expressed with the following equation: […]
In order to increase the reactivity score over several independent positive sera blots symbolised as (+), Fe(p) enrichment scores were summed with each other and to subtract the non-specific reactivity, the same sum was performed on the same number of negative sera peptides, symbolised as (−) and subtracted. Peptide reactivity scores can be expressed though the following equation:
Rs(p)=[Σ(Fe(p))^(+)−Σ(Fe(p))^(−)]

[1] = molecular target: T1, His rBCLA (HisTag-rBCLA: C-terminal domain of BCLA, res 1089-1275, with a TEV cleavable N-terminal His-tag) (Toxoplasma gondii); assay: ELISA, periplasmic extract on coated His rBCLA
T1 construct: also called Cter-BCLA; recombinant rBCLA
T1 chain: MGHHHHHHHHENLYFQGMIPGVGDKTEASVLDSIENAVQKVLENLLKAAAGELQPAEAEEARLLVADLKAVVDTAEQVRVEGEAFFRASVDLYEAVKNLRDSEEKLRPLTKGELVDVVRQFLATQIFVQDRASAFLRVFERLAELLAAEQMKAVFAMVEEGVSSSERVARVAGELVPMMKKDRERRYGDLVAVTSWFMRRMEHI

His rBCLA = assay: ELISA binding of purified VHH to immobilized His rBCLA; set-up: species or system Toxoplasma gondii; settings: 200 ng/well antigen, serial dilution of VHH
Description: The binding of purified VHH to immobilized His rBCLA was analyzed by ELISA. A MaxiSorp plate was coated with 200 ng/well antigen overnight at 4° C. in PBS. After blocking the wells with 4% MPBS, a serial dilution of the VHH was added to the coated wells and incubated for 1 hour at room temperature. After washing unbound VHH, bound VHH were detected using a mouse-anti-flag (clone M2) and donkey-anti-mouse coupled to HRP. Binding was quantified by measuring colorimetric reaction of OPD+H2O2 at 490 nm. ERB-1G6, ERB-1B11 and ERB-1A12 show a subnanomolar apparent affinity to immobilized His rBCLA. ERB-1F1 and ERB-1F2 show a low nanomolar affinity. ERB-1H4 and ERB-1D7 show a […] apparent affinity to His rBCLA.

[2] = molecular target: T1, His rBCLA (HisTag-rBCLA: C-terminal …); assay: phage display selection on His rBCLA and ELISA, as retold in the description
[3] = molecular target: T1, His rBCLA (HisTag-rBCLA: C-terminal …); assay: ELISA, serial dilution of purified VHH on coated His rBCLA (200 ng/well), anti-flag detection
[4] = molecular target: T1, His rBCLA (HisTag-rBCLA: C-terminal …); assay: ELISA on coated His rBCLA (conclusion of Example 2)

## KLRPLTKGELVDVVR (Synthetic peptide 30 of rBCLA)
BCLA positive sera
  peptide reactivity (total reactivity score), rBCLA region array: stronger zones of reactivity

## EGEAFFRASVDLYEA (Synthetic peptide 22 of rBCLA)
BCLA positive sera
  peptide reactivity (total reactivity score), rBCLA region array: stronger zones of reactivity

## QPAEAEEARLLVADL (Synthetic peptide 13 of rBCLA)
BCLA positive sera
  peptide reactivity (total reactivity score), rBCLA region array: stronger zones of reactivity

B1: VHH ERB-1F1 (VHH)
VHH: EVQLVESGGGLVQAGDSLRLSCAASGRTFSRVTMGWFRQAPGKEREFVAGISWSGTRTDYPDSVKGRFTVSRDNAKKTMWLQMSSLRPEDTAVYHCAADSTLYGSAISNNREAYAYWGQGTQVTVSS
notes: also called VH ERB-1F1; not shown: C-terminal FLAG and His-tag from vector pMEK222
[1]
  binding result: binds

B2: ERB-1F1: single domain antibody (VHH) selected on His rBCLA, SEQ ID NO: 60 (protein)
VHH: EVQLVESGGGLVQAGDSLRLSCAASGRTFSRVTMGWFRQAPGKEREFVAGISWSGTRTDYPDSVKGRFTVSRDNAKKTMWLQMSSLRPEDTAVYHCAADSTLYGSAISNNREAYAYWGQGTQVTVSS
modifications: Synthetic VHH ERB-1F1
His rBCLA
  apparent affinity to immobilized His rBCLA: low nanomolar

B3: VHH ERB-1F2 (VHH)
VHH: EVQLVESGGGLVQVGGSLRLSCAASGRTFRRNTIGWFRQAPGKEREFVAAISWSGTRTKYADPVKGRFTISRDNDKNTAYLQMNTLKPDDTAVYYCAADGALYGSDVSGLARVYDYWGQGTQVTVSS
notes: also called VH ERB-1F2; not shown: C-terminal FLAG and His-tag from vector pMEK222
[1]
  binding result: binds

B4: ERB-1F2: single domain antibody (VHH) selected on His rBCLA, SEQ ID NO: 61 (protein)
VHH: EVQLVESGGGLVQVGGSLRLSCAASGRTFRRNTIGWFRQAPGKEREFVAAISWSGTRTKYADPVKGRFTISRDNDKNTAYLQMNTLKPDDTAVYYCAADGALYGSDVSGLARVYDYWGQGTQVTVSS
modifications: Synthetic VHH ERB-1F2
His rBCLA
  apparent affinity to immobilized His rBCLA: low nanomolar

B5: VHH ERB-1B11 (VHH)
VHH: EVQLVESGGGLVQAGGSLRLTCAASGRTFRRSNMAWFRQPPGKERDFVAAIKWSGSSTNYADSVKGRFTISRDNDKNTVYLQMNVLKPEDTGVYYCAQESSLYSNYLPVVSSAYDYWGQGTQVTVSS
notes: also called VH ERB-1 B11; not shown: C-terminal FLAG and His-tag from vector pMEK222
[2]
  binding result: binds

B6: ERB-1B11: single domain antibody (VHH) selected on His rBCLA, SEQ ID NO: 58 (protein)
VHH: EVQLVESGGGLVQAGGSLRLTCAASGRTFRRSNMAWFRQPPGKERDFVAAIKWSGSSTNYADSVKGRFTISRDNDKNTVYLQMNVLKPEDTGVYYCAQESSLYSNYLPVVSSAYDYWGQGTQVTVSS
modifications: Synthetic VHH ERB-1B11
His rBCLA
  apparent affinity to immobilized His rBCLA: subnanomolar; also recorded: very good

B7: VHH ERB-1G6 (VHH)
VHH: EVQLVESGGGLVQAGGSLGLSCAASGRPGRIFTRNSMAWFRQAPGKEREFVASINWSGTSTSYADSVKGRFAISRDNDKNTVYLQMNSLKPEDTAVYYCAADSALYGSMHKTPADYEYWGQGTQVTVSS
notes: also called VH ERB-1 G6; not shown: C-terminal FLAG and His-tag from vector pMEK222
[3]
  binding result: binds

B8: ERB-1G6: single domain antibody (VHH) selected on His rBCLA, SEQ ID NO: 57 (protein)
VHH: EVQLVESGGGLVQAGGSLGLSCAASGRPGRIFTRNSMAWFRQAPGKEREFVASINWSGTSTSYADSVKGRFAISRDNDKNTVYLQMNSLKPEDTAVYYCAADSALYGSMHKTPADYEYWGQGTQVTVSS
modifications: Synthetic VHH ERB-1G6
His rBCLA
  apparent affinity to immobilized His rBCLA: subnanomolar; also recorded: very good

B9: VHH ERB-1D7 (VHH)
VHH: KVQLVESGGGLVQAGGSLRLSCAASGRTFSRRGMGWFRQAPGKEREFVATIKWSGTSTDYADSVKGRFTISRDNAKNTVYLQMNNLQPEDTAVYYCAADRQLYRDGYVPLNEYEDWGQGTQVTVSS
notes: also called VH ERB-1D7; not shown: C-terminal FLAG and His-tag from vector pMEK222
[1]
  binding result: binds

B10: ERB-1D7: single domain antibody (VHH) selected on His rBCLA, SEQ ID NO: 63 (protein)
VHH: KVQLVESGGGLVQAGGSLRLSCAASGRTFSRRGMGWFRQAPGKEREFVATIKWSGTSTDYADSVKGRFTISRDNAKNTVYLQMNNLQPEDTAVYYCAADRQLYRDGYVPLNEYEDWGQGTQVTVSS
modifications: Synthetic VHH ERB-1D7
His rBCLA
  apparent affinity to immobilized His rBCLA: molar

B11: VHH ERB-1A12 (VHH)
VHH: EVQLVESGGGLVQAGGSLRLSCAASGRTFSRYFMGWFRQAPGKEREFVAGIIWSGTRTYYVDSVKGRFTISRDNDKRMVYLQMNSLKPEDTAVYYCAAYKEYYGTPAQLYAAASYDYWGQGTQVTVSS
notes: also called VH ERB-1A12; not shown: C-terminal FLAG and His-tag from vector pMEK222
[4]
  binding result: binds

B12: ERB-1A12: single domain antibody (VHH) selected on His rBCLA, SEQ ID NO: 59 (protein)
VHH: EVQLVESGGGLVQAGGSLRLSCAASGRTFSRYFMGWFRQAPGKEREFVAGIIWSGTRTYYVDSVKGRFTISRDNDKRMVYLQMNSLKPEDTAVYYCAAYKEYYGTPAQLYAAASYDYWGQGTQVTVSS
modifications: Synthetic VHH ERB-1A12
His rBCLA
  apparent affinity to immobilized His rBCLA: subnanomolar; also recorded: very good

B13: VHH ERB-1H4 (VHH)
VHH: EVQLVESGGGLVQAGGSLRLSCVASGRTFSRYTVGWFRQAPGKEREFVAGISWSGSRTSYADSVKGRFTISRDNDKTTGYLQMNSLKPEDTAVYYCAAITKLYENNIPRSVSDYALWGQGTQVTVSS
notes: also called VH ERB-1H4; not shown: C-terminal FLAG and His-tag from vector pMEK222
[1]
  binding result: binds

B14: ERB-1H4: single domain antibody (VHH) selected on His rBCLA, SEQ ID NO: 62 (protein)
VHH: EVQLVESGGGLVQAGGSLRLSCVASGRTFSRYTVGWFRQAPGKEREFVAGISWSGSRTSYADSVKGRFTISRDNDKTTGYLQMNSLKPEDTAVYYCAAITKLYENNIPRSVSDYALWGQGTQVTVSS
modifications: Synthetic VHH ERB-1H4
His rBCLA
  apparent affinity to immobilized His rBCLA: molar
